According to patent US20240392003A1 (NUMAB THERAPEUTICS, published 2024):
Like-named read-outs stand apart in the source and are kept apart here.

Assays:
[1] = target: T1, recombinant human ROR1 protein (Fc-Tag, Acro Biosystems RO1-H5250) (human, UniProt Q01973 30-406); assay: SPR; hROR1-Fc immobilized
T1 construct: Bought; also called hROR1; recombinant human ROR1 ECD; not shown: Fc tag

[2] = target: T1, recombinant human ROR1 protein (Fc-Tag, …); assay: SPR; hROR1-Fc immobilized; remark: listed apart in the source
[3] = target: T2, human ROR1 expressed on cells (human, UniProt Q01973 30-937); assay: flow cytometry, MDA-MB-231 cells; mean of three experiments
T2 construct: whole, on cells; One molecule for cell-surface ROR1 on all cell lines; the cell line is named under assay; also called hROR1; plasma membrane human ROR1

[4] = target: T2, human ROR1 expressed on cells; assay: flow cytometry, MDA-MB-231 cells; mean of two experiments
[5] = target: T3, cynomolgus monkey serum albumin (Molecular Innovations CYSA) (cynomolgus monkey); assay: SPR; cSA immobilized, pH 7.4
T3 construct: also called cSA; CSA

[6] = target: T4, human serum albumin (Sigma-Aldrich A3782) (human, UniProt P02768 25-609); assay: SPR; hSA immobilized, pH 5.5
T4 construct: also called hSA; HSA

[7] = target: T5, mouse serum albumin (Sigma-Aldrich A3559) (mouse, UniProt P07724 25-608); assay: SPR; mSA immobilized, pH 7.4
T5 construct: also called mSA; MSA

[8] = target: T5, mouse serum albumin (Sigma-Aldrich …); assay: SPR; mSA immobilized, pH 5.5; biphasic binding corrected with bulk correction in 1:1 fit
[9] = target: T3, cynomolgus monkey serum albumin …; assay: SPR; cSA immobilized, pH 5.5
[10] = target: T5, mouse serum albumin (Sigma-Aldrich …); assay: SPR; mSA immobilized, pH 5.5
[11] = target: T5, mouse serum albumin (Sigma-Aldrich …); assay: SPR; mSA immobilized, pH 7.4; biphasic binding corrected with bulk correction in 1:1 fit
[12] = target: T4, human serum albumin (Sigma-Aldrich …); assay: SPR; hSA immobilized, pH 7.4

B1: PRO2060 (scFv, V domains shown)
VH: QSQVVESGGGLVQPGGSLRLSCAVSGFDLSSYAVSWVRQAPGKGLEWIGIIYPRANTYYASWAKGRFTISKDNSKNTVYLQMNSLRAEDTAVYFCARDRYDSGAYLYTTYFNLWGQGTLVTVSS
VL: DVQMTQSPSSLSASVGDRVTITCRASENIYSGLAWYQQKPGKPPKLLIYRASTLASGVSSRFSGSGSGTDFTLTISSLQPEDFATYYCQGGYYSSSSTYIAFGTGTKVTVLG
notes: scFv (Full graft); also called 55-38-D07-sc02
[1]
  Kd: 0.416 nM
  koff: 9.79e-05 s⁻¹
  kon: 250000 M⁻¹ s⁻¹
[2]
  Kd: 0.285 nM
  koff: 9.56e-05 s⁻¹
  kon: 335000 M⁻¹ s⁻¹
[3]
  EC50: 2.93 nM

B2: PRO2062 (scFv, V domains shown)
VH: QSQLVESGGGLVQPGGSLRLSCAVSGLSLSRNAMSWVRQAPGKGLEWIGIILTSGSTYYASWAKGRFTISKDNSKNTVYLQMNSLRAEDTAVYFCVRGIASSSLKSFWGQGTLVTVSS
VL: AQQLTQSPSSLSASVGDRVTITCQASQNVWNNNYLSWFQQKPGKPPKLLIVTASTLASGVSSRFSGSGSGTDFTLTISSLQPEDFATYYCAGGFSGEIRAFGTGTKVTVLG
notes: scFv (Full graft); also called 55-39-G02-sc02
[4]
  EC50: 0.26 nM
[1]
  Kd: 0.103 nM
  koff: 0.000455 s⁻¹
  kon: 4.45e+06 M⁻¹ s⁻¹
[2]
  Kd: 0.0926 nM
  koff: 0.00049 s⁻¹
  kon: 5.29e+06 M⁻¹ s⁻¹

B3: PRO2155 (scFv, V domains shown)
VH: EVQLVESGGGLVQPGGSLRLSCAASGFSLSSYAMNWVRQAPGKGLEWIGHINAGDIAYYATWAKGRFTISRDNSKNTVYLQMNSLRAEDTAVYFCARGAGGFSTGPFKLWGQGTLVTVSS
VL: AFELTQSPSSLSASVGDRVTITCQASESINSRLAWYQQKPGQPPKLLIYDASDLTSGVPSRFSGSGSGTDFTLTISSLQPEDFATYYCQGYGGSSTTTFGGGTKLTVLG
notes: scFv; also called 19-04-A10-sc02; anti-hSA scFv
[5]
  Kd: 1.6 nM
  koff: 0.00091 s⁻¹
  kon: 580000 M⁻¹ s⁻¹
[6]
  Kd: 3.3 nM
  koff: 0.003 s⁻¹
  kon: 900000 M⁻¹ s⁻¹
[7]
  koff: 0.00029 s⁻¹
  kon: 32000 M⁻¹ s⁻¹
[8]
  Kd: 2.5 nM
[9]
  Kd: 2.3 nM
  koff: 0.0021 s⁻¹
  kon: 910000 M⁻¹ s⁻¹
[10]
  koff: 0.0002 s⁻¹
  kon: 78000 M⁻¹ s⁻¹
[11]
  Kd: 9 nM
[12]
  Kd: 2.2 nM
  koff: 0.0012 s⁻¹
  kon: 550000 M⁻¹ s⁻¹
